Data from PMC6324732 (Cancer immunology research, 2018).
Like-named read-outs stand apart in the source and are kept apart here.

Experiments:
HLA-A2 [1] = settings: each complex refolded with HLA-A2 individually, DSF; cited from earlier work
[2] = molecular target: HLA-A*02:01 heavy chain / β2-microglobulin (human); assay: differential scanning fluorimetry
HLA-A2 [3] = settings: pep/HLA-A2 complexes; cited from earlier work
[4] = system: HLA-A2-restricted T-cell response; settings: HLA-A2-restricted epitopes; cited from earlier work
[5] = molecular target: HLA-A*02:01 heavy chain / β2-microglobulin (human); assay: differential scanning fluorimetry; remark: listed apart in the source

Row | Tm of the peptide/HLA-A2 complex [5] [°C] | Molecule | further results
1 | – | YMDGTMSQV [Tyrosinase] | Tm value determined by another lab (HLA-A2 [1]): 67.3 °C
2 | – | TAX peptide | Tm of the peptide/HLA-A2 complex [2]: 61.9 °C
3 | – | FLTSVINRV | half-life of the complex (reported) (HLA-A2 [3]): 22.3 h; immunogenicity (reported) [4]: immunogenic
4 | 59.4 | ALIHHNTYL [ERBB2 neoantigen peptide …] | –
5 | 48.2 | VLENFTIFLV | –
6 | 56.9 | FIASNGVKLV [ACTININ neoantigen peptide …] | –
7 | 58.5 | GIVEGLITTV [GAPDH neoantigen peptide …] | –
8 | 60.1 | FMPDFDLHL [AHNAK neoantigen peptide …] | –
9 | 52.6 | GLFGDIYLAI [CSNK1A1 neoantigen peptide …] | –
10 | 56.9 | ILNAMIAKI [HAUS3 neoantigen peptide …] | –
11 | 53.2 | TLLSQVNKV [CIT neoantigen peptide …] | –
12 | 55.8 | SVLENFTIFL | –
13 | 59.7 | VLHDDLLEA [KIAA0223 neoantigen peptide …] | –
14 | 55.3 | LLLDDLLVSI [PRDX5 neoantigen peptide …] | –
15 | 63.7 | TLWCSPIKV [SRPX neoantigen peptide …] | –
16 | 60.7 | FLLDEAIGL [SPOP neoantigen peptide …] | –
17 | 63.2 | FLDEFMEGV [ME-1 neoantigen peptide …] | –
18 | 60.9 | VLLGVKLFGV [COL18A1 neoantigen peptide …] | –
19 | 59.8 | SLFEGIDIYT [HSP70 neoantigen peptide …] | –
20 | 61.7 | ALYGFVPVL [GANAB neoantigen peptide …] | –
21 | 56.8 | VLAKKLKFV [ACPP neoantigen peptide …] | –
22 | 42.9 | LLHTELERFL [DCAKD neoantigen peptide …] | –
23 | 61.8 | FLSDHLYLV [CDC37L1 neoantigen peptide …] | –
24 | 59.9 | ACDPHSGHFV [CDK4 neoantigen peptide …] | –
25 | 59.2 | SLADEAEVYL [GAS7 neoantigen peptide …] | –
26 | 56.4 | HIAKSLFEV [FLNA neoantigen peptide …] | –
27 | 57.1 | ILDKVLVHL [CLPP neoantigen peptide …] | –
28 | 61.4 | ILTGLNYEV [NSDHL neoantigen peptide …] | –
29 | 61.6 | VVMSWAPPV [FNDC3B neoantigen peptide …] | –
